Target: Polyketide synthase 13 (Pks13) of Mycobacterium smegmatis (Mycobacterium smegmatis) (UniProt A0R617)
Experiment: native gel or EMSA; blue native PAGE of the protein of both sizing-column peaks; purified in β-DDM

- stoichiometry N: 2
Substance: Polyketide synthase 13 (Pks13) of Mycobacterium smegmatis (from UniProt A0R617 1-1816) (enzyme)

Source: doi:10.1101/2023.01.27.525930
